Results taken from patent US20020009436A1, “Methods and compositions for inhibiting adhesion by microorganisms” (priority 1999, published 2002).

Legend:
S. pyogenes [1] = experiment: Adhesion of S. pyogenes to buccal epithelial cells (coaggregation slides); assay type: cell-based, Streptococcus pyogenes
Procedure: This experiment began with growing and harvesting of five strains of S. pyogenes, including M14 Lowe, YL3, M24 and T2/MR. The strains were grown in BHI broth in a 37 degree incubator overnight. The cultures were grown under static conditions. The cells were then harvested by washing twice with phosphate buffer (pH=7). Treatment of the cells with polyphenol oxidase and asparaginase began with finding the optical density of the stock solution of harvested cells. This was done using a spectrophotometer. Each strain was treated with two concentrations of polyphenol oxidase (100 μg/OD and 300 μg/OD) and one concentration of asparaginase (300 μg/OD). The treatment of the cells with polyphenol oxidase took place in the 37 degree incubator for 1.5 hours. The cells were then washed twice with phosphate buffer (pH 7). At this time, a coaggregation was made and allowed to set at static conditions for two hours. Slides were then made of each coaggregation.
The treatment of the cells with asparaginase also took place in the 37 degree incubator for three hours. Before treatment, the cells were washed twice with phosphate buffer of pH=8. After treatment, they were washed twice with phosphate buffer of pH=7. Coaggregations and slides were then made as for polyphenol oxidase.
The buccal cells were harvested from the inner cheeks using cotton swabs. […]

S. aureus [2] = experiment: Fibronectin binding assay, S. aureus; assay type: cell-based; conditions: polyphenol oxidase 80 U/ml, asparaginase 20 U/ml
Procedure: Wells were filled with human serum fibronectin (50 μg/ml) diluted in carbonate buffer (50 mM Na2CO3—NaHCO3, pH 9.5 overnight). Controls were coated with 1% BSA. The wells were washed three times with PBS and incubated with PBS-Tween (0.5% Tween 20 and 0.05% NaN3) 1 h at 37° C. After attachment, the wells were washed three times with PBS-Tween and allowed to dry. Subsequent assays were as described hereinabove.

[3] = tested on: type 1-fimbriated and P-fimbriated E. coli; experiment: Growth inhibition of E. coli; assay type: cell-based
Procedure: Similar and/or art recognized methods were used to monitor the effects of asparaginase on growth of other microbes including two strains of E. coli, S. pyogenes, Klebsiella pneumoniae, Bacillus cereus, and Proteus vulgaris. Both type 1-fimbriated and P-fimbriated E. coli were incubated with polyphenol oxidase, asparaginase, and ampicillin to test the ability of these agents to inhibit the growth of the bacteria.

Proteus vulgaris = experiment: Growth inhibition of Proteus vulgaris; assay type: cell-based
S. aureus [4] = experiment: Collagen binding assay, S. aureus; assay type: cell-based
Procedure: Wells were filled with 1 mg/ml soluble collagen overnight at 4° C. Control wells were coated with 1% BSA. The protein solutions were removed and permitted to stand at 37° C. for 1 h. A solution of 2% BSA was added to the wells to block unoccupied sites and prevent non-specific binding of bacteria. After 30 min, BSA was removed and the wells were washed once with distilled water. Finally, the bacterial suspensions (100 μl, OD 1.4) were added to the plates and incubated at 37° C. for 2 h. Unbound bacteria were removed by washing the wells three times with PBS containing 0.01% Tween 20. The wells were dried at 37° C. for 30 min and stained with crystal violet for 15 min. Wells were rinsed with distilled water and dried at 37° C. for 2 h. After adding 100 μl of 95% (v/v) ethanol to each well the plates were then shaken to release the stain and a reading of 550 nm was carried out.

[5] = tested on: "trypsin-like" protease activity of P. gingivalis; experiment: Trypsin-like protease activity of P. gingivalis cells (BAPNA); assay type: cell-based; conditions: asparaginase 20 U/ml, polyphenol oxidase 80 U/ml
Procedure: Cell suspensions of P. gingivalis were adjusted up to 1.3 OD at 540 nm in PB. A 100 μl volume of 700 μg/ml BAPNA (benzoyl-DL-arginine-p-nitroanilide) was added to 3 ml of cell suspension. The cells were incubated at 37° C. for different periods of time. The blank contained BAPNA and buffer in the same proportion as P. gingivalis cell suspension. Tubes were centrifuged and the subsequent supernatant was diluted 1:3 and read at 405 nm. Asparaginase and polyphenol oxidase were 20 and 80 U/ml, respectively.

S. pyogenes [6] = tested on: S. pyogenes
[7] = ampicillin 1 mg/ml to 0.015 mg/ml, polyphenol oxidase 1128 to 17.5 units/ml, asparaginase 20 to 0.31 units/ml, data not shown

B1: asparaginase: enzyme that catalyzes hydrolysis of the side chain amide group of asparagine to a carboxyl group; E. coli asparaginase (protein, UniProt P00805 23-348, looked up)
L-asparaginase 2: LPNITILATGGTIAGGGDSATKSNYTVGKVGVENLVNAVPQLKDIANVKGEQVVNIGSQDMNDNVWLTLAKKINTDCDKTDGFVITHGTDTMEETAYFLDLTVKCDKPVVMVGAMRPSTSMSADGPFNLYNAVVTAADKASANRGVLVVMNDTVLDGRDVTKTNTTDVATFKSVNYGPLGYIHNGKIDYQRTPARKHTSDTPFDVSKLNELPKVGIVYNYANASDLPAKALVDAGYDGIVSAGVGNGNLYKSVFDTLATAAKTGTAVVRSSRVPTGATTQDAEVDDAKYGFVASGTLNPQKARVLLQLALTQTKDPQQIQQIFNQY
Q: How did the “binding of bacteria to buccal cells” value (S. pyogenes [1]; asparaginase 300 μg/OD, three hours) turn out when B1 was run?
A: Its value is “reduced binding”.

Q: And the “reduction in adhesion compared with polyphenol oxidase” value (S. pyogenes [1]; equivalent amount)?
A: Its value is “greater reduction in adhesion than an equivalent amount of polyphenol oxidase”.

Q: What about the “Absorbance (fibronectin)” value (S. aureus [2]; S. aureus Cowan, untreated 0.33) of the same molecule?
A: Its value is 0.18.

Q: What about the “Absorbance (fibronectin)” value (S. aureus [2]; S. aureus Wood, untreated 0.42) of the same molecule?
A: Its value is 0.35.

Q: What about the “inhibition of growth of two strains of E. coli” value [3] of the same molecule?
A: The value was “did not significantly inhibit growth”.

Q: And the “inhibition of growth of P-fimbriated E. coli” value [3, 7]?
A: The value was “Neither polyphenol oxidase (1128 units/ml to 17.5 units/ml) or asparaginase (20 units/ml to 0.31 units/ml) concentrations tested were able to inhibit the growth”.

Q: What about the “inhibition of growth of type 1-fimbriated E. coli” value [3, 7] of the same molecule?
A: Its value is “Neither polyphenol oxidase (1128 units/ml to 17.5 units/ml) or asparaginase (20 units/ml to 0.31 units/ml) concentrations tested were able to inhibit the growth”.

Q: And the “inhibition of growth of Proteus vulgaris” value (Proteus vulgaris)?
A: The value was “did not significantly inhibit growth”.

Q: And the “Absorbance (collagen)” value (S. aureus [4]; S. aureus Cowan, untreated 0.47)?
A: Its value is 0.30.

Q: What about the “Absorbance (collagen)” value (S. aureus [4]; S. aureus Wood, untreated 0.40) of the same molecule?
A: The value was 0.26.

Q: What about the “trypsin-like activity (BAPNA hydrolysis)” value [5] of the same molecule?
A: Its value is “diminished”.

Q: And the “inhibition of growth of S. pyogenes” value (S. pyogenes [6])?
A: Its value is “did not significantly inhibit growth”.
